The text below walks through data of the DeepSol protein solubility set.

A short description of this data set: soluble on expression in E. coli; label from the status in PepcDB or PDB records.
Turning to “MAPTRAVIPDDFELPVDAFDIPICYDGDLSGVVIPEGLVRDRVRRLAKDIHAEIGNKPIALLCVLKGSYKFFTALVEELTNARSSCPEPMTVDFIRVKSYEDQMSTGQIQIMGLSNLDELKGKSVLVVDDISDTGRTLAKLLSTLHETGVEKTWTALLLSKRVKRVVDVPEDFVAFEIPDKFIVGYGLDYNQKFRDLGHICVMSPAGIEKYKSE”, the “soluble on expression in E. coli” value is on record as “not soluble”.
For “MTVYHFVGIKGTGMSPLAQILHDNGYTVQGSDIEKFIFTQTALEKRNITILPFSAENIKPGMTVIAGNAFPDTHPEIEKAMSEGIPVIRYHKFLGDYMKKFTSVAVTGAHGKTSTTGLLAHVIQNAKPTSFLIGDGTGQGNENSEYFVFEACEYRRHFLSYQPDYAIMTNIDFDHPDYFSSIDDVFDAFQEMALQVNKGIIACGDDEHLPKIHANVPVVYYGTGEENDFQARNIVKSTEGTTFDVFVRNTFYDTFYIPAYGHHNVLNSLAVIALCHYEEIDSSIIKHALKSFGGVKRRFNEKQLGDQVLIDDYAHHPTEIKVTIEAARQKYPDREIVAVFQPHTFTRTQQFLDEFAESLSGADCVYLCDIFGSARENAGKLTIGDLQGKIHNAKLIEEDDTSVLKAHDKAVLIFMGAGDIQKYMRAYENVMA”, the “soluble on expression in E. coli” value is listed as “not soluble”.
With “MFQDMSKDFDIKRIKRSNTSCSTGVGAHVHPFNEIFYLSSGECTSFIDHNIYKFGKGDLVIVPSGCLHRTTYNGKGMHERIVISFRNEATEWIQNQTGKELMENCMKPGVVNIPEKRRDYVVALLDKLIFENDSPDELSPAFIKVGLIELLLFIIRCKNYEENVIKEIDVDNR”, the “soluble on expression in E. coli” value is given as “not soluble”.
Consider “MGSDKIHHHHHHMNDLNVLVLEDEPFQRLVAVTALKKVVPGSILEAADGKEAVAILESCGHVDIAICDLQMSGMDGLAFLRHASLSGKVHSVILSSEVDPILRQATISMIECLGLNFLGDLGKPFSLERITALLTRYNARRQDLPRQIEVAELPSVADVVRGLDNGEFEAYYQPKVALDGGGLIGAEVLARWNHPHLGVLPPSHFLYVMETYNLVDKLFWQLFSQGLATRRKLAQLGQPINLAFNVHPSQLGSRALAENISALLTEFHLPPSSVMFEITETGLISAPASSLENLVRLRIMGCGLAMDDFGAGYSSLDRLCEFPFSQIKLDRTFVQKMKTQPRSCAVISSVVALAQALGISLVVEGVESDEQRVRLIELGCSIAQGYLFARPMPEQHFLDYCSGS”, for which the “soluble on expression in E. coli” value is on record as “not soluble”.
The entry for “MSVQDTKAVEFSMGHIRSSSVSLVAEATSNTNSEDKLSKVQLYEDLCRYEDTLSKLVESVDRFKPNLDIAKDLIRTDEALFENVKLLAEYDNIYRNLQKIDKDSEELDSKTRKILEILNECHDELKALPMLEQVEFEKNTILQQRSKINSTELLDYATKLSKFTKIPPTFDKGAVGPNNFIWPAEDALRRGMLAMASLHSKELTRIPGEEVEETEVPTVPPSQSEEQKGQMAKKEGTPKTDSFIFDGTAKEVGDEADNTKDKEKEENNDDALDLDLDLFDPDDF” is “soluble”.
The entry for “MAHHHHHHMPTEAHGWAALSAKSKLEPFAFQRRDVGPDDVVIAIAYCGVCHSDVHQARDEWDGSTFPMVPGHEIVGHVTKVGSEVTKYKAGDRVGVGCMVDSCMKCRQCERGLEQYCVNGASFTYNSTQQDKKTPTFGGYSDHVVVREHFVVSIPDNLDLCAAAPLLCAGVTTFSPLRYWGVKKGTRVGVVGLGGLGHMAVKLANAMGAEVTVFTRSSNKVEEAENLGAHHVVNTNNEQEMNSIQGTLDVIVDTVGMSHDLRPYMMTLDIDGKLALVGMPEHAHPPLDPRRIIASRQCVGGSNIAGMPETQELLNFCGEHNITATVEKIGIEYINEAYERILASDVRYRFVIDMASLKKE” is “soluble”; for “KDMFNTKSSNGKLRIEDASHNARKLGLAPSSTDEKKIRDLYGDSLTYEQYLEYLTMCVHDRDNMEELIKMFSHFDNNSSGFLTKNQMKNILTTWGDALTEQEANDALNAFSSEDRINYKLFCEDIL” it is “soluble”.
“SLDPSKVTSMSAVEFTPLPTCLQHRSCDACMSSDLTFNCSWCHVLQRCSSGFDRYRQEWMDYGCAQEAEGRMCEDFQD”: the “soluble on expression in E. coli” value is “soluble”.
On to “MSNTPIELKGSSFTLSVVHLHEAEPEVIRQALEDKIAQAPAFLKHAPVVINVSGLESPVNWPELHKIVTSTGLRIIGVSGCKDASLKVEIDRMGLPLLTEGKEKAVRPAPVEPATPSEPPQNANPITKTRLIDVPVRSGQRIYAPQCDLIVTSHVSAGAELIADGNIHVYGMMRGRALAGASGDREAQIFCTHLTAELVSIAGVYWLSDKIPAEFYGKAARLRLADNALTVQPLN”, for which the “soluble on expression in E. coli” value is reported as “not soluble”.
For the sequence “MGSDKIHHHHHHVLNLGHKLLQYEAQKLISFHTPGHKGKAEFFTDLHFPDQDLTELPGLDMLHSPAGVIAQAQARAAAVYQSDASFYLINGATVGNQGMFMALAGTGKRGKDLQLPKVLVERQSHRSVFSALVLSGCEPEYIPSVVHPEFGLPLGLKSIAEVDLGEFLGVHLTYPGYYGTLPDLAMIAAQRDRQAVQVSILVDQAHGSHYLSPLFPKGALAYGADLVLCSTHKTLSALTQAAMLHVQGSRIPLSALKEALELLQSSSPSYLLMASLERAVEHALESRRWELLHEAVQELHHRVGGSLRILNPQDVGTYGIAGLDWTKIMINTQRLGVAAPRCVEHLRKSYGIDPELWDDKNILFLLGIGNTPEEVEILTKGLLSLASLNKDVVASPEEMVFEIPLPPVRLTPRQAYFARKRKIPLAESVGHIVGESISPYPPGIPWIVMGEEMTPEILELLTRHKGRWQGWEDAGQGVWIIEEV”, the “soluble on expression in E. coli” value is on record as “not soluble”.
The entry for “MGSDKIHHHHHHMISTANLTIQFGPKPLFENVSVKFGEGNRYGLIGANGSGKSTFMKIIGGDLEPSAGNVSLEPGVRLGKLRQDQFAFEEVRVLDVVMMGHTEMWAAMSERDAIYANPEATEDDYMRAADLEAKFAEYDGYTAEARAGELLLGLEIAVDQHNLLMREIAPGWKLRVLLAQALFSNPDVLLLDEPTNNLDINTIRWLENVLNGYQSTMIIISHDRHFLNQVCTHMADVDYGEIRVYPGNYDDYMLASTQARERLTANNAKAKERIVELQDFVRRFAANKSKSRQATSRLKQIDRIKADQVEVKPSSRQNPYIRFEQNKVMHRLAVTIEKLSKSYDQPVIRDFSAMVDAGEKVAIIGANGVGKTTLLRMLATDLAPDSGTVKWSENADIGYMAQDVSDQFQQGDINLFDWMAEHRQPGDDDQSIRSALGRLLFSGDDLPKAPKVLSGGEKNRMTFGRLMLGRHNVMLLDEPTNHLDMESIESLQFALEKYEGALIFVSHDREFVSGLATRIIEILPDGELVDYRGGYEDYLASRGIEA” is “not soluble”; for “MTMGKRTQAPALEVRLLREGIIESKHIVQAVVCDERGRVLSVAGNSETATFVRSALKPFQALAVTTTGTLERYDLSDRDLAIITSSHKGTIEQVRQAFNILWRADLDPSVLQCPIPQGKRSPLEYNCSGKHAGMLAICQQRHWPLNNYMDRKHPVQQLVLAKVAELLRMPAAEFISAHDDCGVPTYLLQLGQISSLYALLAASNNLDMERIVRAMTHHPSMVAGEREFDTELMRLTPGELVSKSGAEGVQCIGRLGEGMGLTIKVMDGAKRAKYAVAIHLLQQMGWITPSVAESLAEKFMNPGKYTRLEVVGELSLLLEHHHHHH” it is “not soluble”; for “ATKEFIYLVRGMTPEQGQAALDLKVPGVYGIEEFRRFYPAGDVTAHMVGFTDLDDHGREGVELAYDDWLAGVPGKRQVIKDRRGRLIKDVQVTKNAKAGKTLALSID” it is “not soluble”.
“MEGESVKLSSQTLIQAGDDEKNQRTITVNPAHMGKAFKVMNELRSKQLLCDVMIVAEDVEIEAHRVVLAACSPYFCAMFTGDMSESKAKKIEIKDVDGQTLSKLIDYIYTAEIEVTEENVQVLLPAASLLQLMDVRQNCCDFLQSQLHPTNCLGIRAFADVHTCTDLLQQANAYAEQHFPEVMLGEEFLSLSLDQVCSLISSDKLTVSSEEKVFEAVISWINYEKETRLEHMAKLMEHVRLPLLPRDYLVQTVEEEALIKNNNTCKDFLIEAMKYHLLPLDQRLLIKNPRTKPRTPVSLPK”: the “soluble on expression in E. coli” value is on record as “soluble”.
Turning to “MGHHHHHHSHGQSLIVLQNVGGGEAGPQEMSGVQLQPLRPAPEVTTVQLQPAQEVTTVQLQPAQEVTTVQLQPAQEVTTVQLQPVAGQLSNSSGGAVATEAPNLLVVQSGAAEELLTGPGPGEAGDGEASTGVVQDVLFETLQTDEGLQSVLVLSGADGEQTRLCVQEVETLPPGLTEPPATGPPGQKLLIIRSAPATELLDSSNTWRRHRPRCNFLAPPAV”, the “soluble on expression in E. coli” value is on record as “not soluble”.
